Data taken from paper PMC4201348 (ACS Chemical Biology, 2014).
Where a chain is given by its changes, count along the chain named.

B1: 31C7 (antibody, V domains shown)
VH: EVQLVESGGGLVQPGGSLRLSCAASGFAFNYYDMFWVRQAPGKGLEWVAYINPGGGNTYYADSVKGRFTISADTSKNTAYLQMNSLRAEDTAVYYCARQLYGNSFLDYWGQGTLVTV
VL: DIQMTQSPSSLSASVGDRVTITCKASQDVTTAVAWYQQKPGKAPKLLIYWASSRYPGVPSRFSGSGSGTDFTLTISSLQPEDFATYYCQQHYSTPLTFGQGTKVEI
B2: 35B5 (antibody, V domains shown)
VH: B1 VH with P53S, A61P, L106F
VL: B1 VL with S53T, Y55H, P56T
B3: 51B6 (antibody, V domains shown)
VH: B1 VH with M34L, F35Y, A61P, L106F
VL: B1 VL with S53T, Y55H, P56T
B4: 34F5 (antibody, V domains shown)
VH: B1 VH with P53S, A61P, L106F
VL: B1 VL with S53A, Y55H, P56R

Molecular target: soluble, recombinant SUDV GP (Boniface variant), residues 33-649 (Sudan ebolavirus (Boniface variant), UniProt Q66814)

Binder	binding result
B1	binds
B2	binds
B3	binds
B4	binds
